Target: Aiolos (mouse) (UniProt O08900)
Assay: cell-based or functional assay

Sequence of Aiolos (mouse) (O08900 other isoform, or with tags, fused parts or gaps limits assumed): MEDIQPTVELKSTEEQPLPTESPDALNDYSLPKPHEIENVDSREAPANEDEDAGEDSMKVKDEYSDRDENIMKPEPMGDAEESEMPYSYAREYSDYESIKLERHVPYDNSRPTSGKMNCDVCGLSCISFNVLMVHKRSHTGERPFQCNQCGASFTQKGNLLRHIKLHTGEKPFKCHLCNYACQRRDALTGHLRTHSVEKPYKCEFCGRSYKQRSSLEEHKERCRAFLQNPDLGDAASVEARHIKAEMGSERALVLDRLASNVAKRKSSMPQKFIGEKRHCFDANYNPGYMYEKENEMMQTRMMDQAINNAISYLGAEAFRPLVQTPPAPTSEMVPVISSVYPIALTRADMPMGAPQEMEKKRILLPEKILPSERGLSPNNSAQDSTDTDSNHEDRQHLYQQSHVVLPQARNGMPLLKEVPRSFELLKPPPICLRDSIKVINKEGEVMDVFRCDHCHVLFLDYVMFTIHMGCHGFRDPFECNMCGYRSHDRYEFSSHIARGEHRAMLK

CAT activity from the 4xIK-BS1-tkCAT reporter in transfected NIH-3T3 cells: 65 % reduction
Substance: Ikaros isoform Ik-6 (from UniProt Q03267 1-288)

From patent US20050130265A1
